Results on 16 molecules are retold here after US20260035456A1 (SHANGHAI JEYOU PHARMACEUTICAL, published 2026).

Where a chain is given by its changes, count along the chain named.

For test [1], the target named is T1, biotin-labeled human ADM (human, not fully specified; biotin label (named human ADM-C-biotin in Example 1.4; position of the biotin not stated for the other lots)).
T1 construct: Synthetic peptide; also called human ADM-C-biotin; hADM-Biotin
T1 peptide: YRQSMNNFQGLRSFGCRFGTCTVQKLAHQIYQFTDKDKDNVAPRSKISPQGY
The test can be described thus: BLI (Octet RED96e), as in Example 3. The method, then: (§1) The affinity of antibodies 2004hz00, 2004hz97, and 2004hz99 for biotin-labeled human and mouse ADM (human ADM Cat. No. 894757, mouse ADM Cat. No. 894758, synthesized by GLBiochem) was determined by adopting Octet RED96e (Fortebio). The antigens and the antibodies were all diluted with 1× PBST (1× PBS: Sangon, B548117-0500; 0.02% Tween 20: sigma, P1379), the concentration of the antibody used was 100 nM, and the concentration of the antigen used was 2 μg/mL. The candidate antibody sample was added to a 96-well plate (Greiner bio-one, 655209) at 200 μL/well, the software parameters were set, the temperature was 30° C., and the standard kinetic signal was collected at a frequency of 5.0 Hz; and an SA sensor (Fortebio, Cat. No. 18-5020) was pre-wetted with 1× PBST for 10 min and then tested on a machine.
(§2) The equilibrium dissociation constants (KD) of the antibodies were calculated by measuring the association rates (Kon) and the dissociation rates (Koff) of the antigen-antibody in a 1:1 binding manner by adopting the Data Analysis 12.0 software from Fortebio.
(§3) Similar to Example 3, the affinity of the affinity-matured antibodies Ab2004.Am31 -Ab2004.Am40 and the parent antibody Ab2004.Am01 for human and mouse ADM was further determined, respectively, and the results are shown in Table 10. It can be seen from Table 10 […].
Background: BLI is a label-free optical method that tracks binding on a fibre tip over time.

In test [2] the target is T2, biotin-labeled mouse ADM (mouse, not fully specified; biotin label (named mouse ADM-C-biotin in Example 1.4; position of the biotin not stated for the other lots)).
T2 construct: Synthetic peptide; also called mouse ADM-C-biotin; mADM-Biotin
T2 peptide: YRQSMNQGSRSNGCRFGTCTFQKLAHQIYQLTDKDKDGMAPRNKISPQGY
The test is described as follows: BLI (Octet RED96e), as in Example 3. The protocol: as §1, §2, §3

For test [3], the target named is T1, biotin-labeled human ADM. The test is described as follows: flow staining of yeast-displayed Fab at graded antigen concentrations. The source says: (§4) For the first round of screening products of JYYDL227, 46 monoclones were picked for sequencing, and finally, a yeast monoclonal colony with a unique sequence was obtained for EC₅₀ identification by flow staining.
(§5) According to the staining results of the clones (as shown in Table 6) in combination with the similarity of the sequences of the clones, the monoclones expressing antibodies Ab2004.Am31 (with amino acid sequences of variable regions set forth in SEQ ID NOs: 31 and 36), Ab2004.Am32 (with amino acid sequences of variable regions set forth in SEQ ID NOs: 31 and 37), Ab2004.Am33 (with amino acid sequences of variable regions set forth in SEQ ID NOs: 32 and 36), Ab2004.Am34 (with amino acid sequences of variable regions set forth in SEQ ID NOs: 33 and 38), Ab2004.Am35 (with amino acid sequences of variable regions set forth in SEQ ID NOs: 31 and 38), Ab2004.Am36 (with amino acid sequences of variable regions set forth in SEQ ID NOs: 31 and 39), Ab2004.Am37 (with amino acid sequences of variable regions set forth in SEQ ID NOs: 34 and 38), Ab2004.Am38 (with amino acid sequences of variable regions set forth in SEQ ID NOs: 34 and 40), Ab2004.Am39 (with amino acid sequences of variable regions set forth in SEQ ID NOs: 33 and 41), and Ab2004.Am40 (with amino acid sequences of variable regions set forth in SEQ ID NOs: 31 and 42) were finally selected. The amino acid sequences of the Chothia-numbered CDRs of the candidate antibodies are shown in Table 7, and the amino acid sequences of the light and heavy chain variable regions of the candidate antibodies are shown in Table 8.

Test [4] has as its target T2, biotin-labeled mouse ADM. Described as above.
Description: as §4, §5

The target of test [5] is T1, biotin-labeled human ADM. The test is described as follows: BLI (Octet RED96e), biotinylated antigen on SA sensor, antibody 100 nM, 1:1 fit. The method, then:
as §1, §2

Test [6] concerns the target T2, biotin-labeled mouse ADM. The description is as above. The method, then:
as §1, §2

B1: Enibarcimab (antibody, V domains shown)
VH: QVQLVQSGAEVKKPGSSVKVSCKASGYTFSRYWIEWVRQAPGQGLEWIGEILPGSGSTNYNQKFQGRVTITADTSTSTAYMELSSLRSEDTAVYYCTEGYEYDGFDYWGQGTTVTVSS
VL: DVVLTQSPLSLPVTLGQPASISCRSSQSIVYSNGNTYLEWYLQRPGQSPRLLIYRVSNRFSGVPDRFSGSGSGTDFTLKISRVEAEDVGVYYCFQGSHIPYTFGGGTKLEIKR
For orientation: Kd means the constant that tells how readily two partners part at equilibrium. Low values mean a tighter complex, high ones a looser complex. A word on the koff: it is a measure of how fast the partners let go of each other. In general, kon refers to a measure of how fast the partners come together. As to B1, in the test with biotin-labeled human ADM [1], binding was put at a Kd of 0.567 nM, the Response value came to 2.07, the koff is 0.000382 s⁻¹ and the kon worked out at 673000 M⁻¹ s⁻¹. In the test with biotin-labeled mouse ADM [2], this molecule had an equilibrium dissociation constant (Kd) of 0.497 nM, a Response value of 2.75, an off-rate (koff) of 0.000297 s⁻¹ and a kon of 597000 M⁻¹ s⁻¹.

B2: Ab2004.Am32 (Fab displayed on yeast) (Fab, V domains shown)
VH: QVQLVQSGAEVKKPGASVKVSCKASGYTFTQYGIAWVRQAPGQGLEWMGWISAYQGNTNYAQKLQGRVTMTRDTSTSTAYMELRSLRSDDTAVYYCAREGRWGGSFNIWGQGTMVTVSS
VL: DIQMTQSPSSLSASVGDRVTITCRAAEGIGSYLAWYQQKPGKAPKLLIYDASNLETGVPSRFSGSGSGTDFTFTISSLQPEDIATYYCQQYDNLPLTFGGGTKVEIK
notes: Yeast monoclonal colony of library JYYDL227 (Fab display)
For orientation: EC50 means the concentration needed to bring the measured effect to its halfway point. With B2, the values for the EC50 with biotin-labeled human ADM [3] and with biotin-labeled mouse ADM [4] were 0.41 nM and 2.2 nM, respectively.

B3: Ab2004.Am01 (Fab displayed on yeast) (Fab, V domains shown)
VH: B2 VH with Q31S, A35S
VL: B2 VL with A26S, E27Q, G30S
In the case of B3, the results for the concentration giving a half-maximal response (EC50) in the test with biotin-labeled human ADM [3] and with biotin-labeled mouse ADM [4] were 4 nM and 88.2 nM, respectively.

B4: Ab2004.Am40 (Fab displayed on yeast) (Fab, V domains shown)
VH: B2 VH
VL: B2 VL with A26S, E27Q, G30S, N93D, T97S
notes: as for B2
With B4, the EC50 with biotin-labeled human ADM [3] turned out to be 0.5 nM; with biotin-labeled mouse ADM [4], 2.5 nM.

B5: Ab2004.Am36 (Fab displayed on yeast) (Fab, V domains shown)
VH: B2 VH
VL: B2 VL with A26S, E27Q, G30S, L54V, E55D
notes: as for B2
As for B5, the EC50 with biotin-labeled human ADM [3] turned out to be 1.73 nM; in the test with biotin-labeled mouse ADM [4] it was 2.67 nM.

B6: Ab2004.Am33 (Fab displayed on yeast) (Fab, V domains shown)
VH: B2 VH with Q31S, A35S, A53P, Q55S
VL: B2 VL with A26S, G30S, S31E
notes: as for B2
Consider B6, for which the EC50 with biotin-labeled human ADM [3] was 0.79 nM; with biotin-labeled mouse ADM [4], 15 nM.

B7: Ab2004.Am39 (Fab displayed on yeast) (Fab, V domains shown)
VH: B2 VH with Q31H
VL: B2 VL with A26S, E27Q, G30S, N93D, P95D
notes: as for B2
For B7, the EC50 with biotin-labeled human ADM [3] turned out to be 0.86 nM; in the test with biotin-labeled mouse ADM [4], 4.23 nM.

B8: Ab2004.Am35 (Fab displayed on yeast) (Fab, V domains shown)
VH: B2 VH
VL: B2 VL with A26S, E27Q, G30S, A51V, N53I, E55D, T56A
notes: as for B2
For the molecule B8, the EC50 with biotin-labeled human ADM [3] stood at 1.47 nM; in the test with biotin-labeled mouse ADM [4], 2.26 nM.

B9: Ab2004.Am31 (Fab displayed on yeast) (Fab, V domains shown)
VH: B2 VH
VL: B2 VL with A26S, G30S, S31E
notes: as for B2
Consider B9, for which the figures for the EC50 in the test with biotin-labeled human ADM [3] and with biotin-labeled mouse ADM [4] were 0.45 nM and 1.66 nM, respectively.

B10: fully human antibody Ab2004.Am01 (expressed antibody) (antibody, V domains shown)
VH: B2 VH with Q31S, A35S
VL: B2 VL with A26S, E27Q, G30S
notes: also called parent antibody Ab2004.Am01
Turning to B10, in the test with biotin-labeled human ADM [1], the Kd amounted to 0.766 nM, the Response value was 2.34, the koff turned out to be 0.000233 s⁻¹ and the kon is 305000 M⁻¹ s⁻¹. Besides, in the test with biotin-labeled mouse ADM [2], the Kd turned out to be 2.21 nM, the Response value was 2.35, the koff turned out to be 0.000956 s⁻¹ and the kon was 434000 M⁻¹ s⁻¹.

B11: Ab2004.Am37 (Fab displayed on yeast) (Fab, V domains shown)
VH: B2 VH with Q31S, A35S, A53P, Q55T, N57K
VL: B2 VL with A26S, E27Q, G30S, A51V, N53I, E55D, T56A
notes: as for B2
On to B11, for which the EC50 with biotin-labeled human ADM [3] was 0.88 nM; with biotin-labeled mouse ADM [4], 6.74 nM.

B12: Ab2004.Am38 (Fab displayed on yeast) (Fab, V domains shown)
VH: B2 VH with Q31S, A35S, A53P, Q55T, N57K
VL: B2 VL with A26S, E27Q, G30S, A51T, N53D, E55D
notes: as for B2
With B12, the figures for the EC50 with biotin-labeled human ADM [3] and with biotin-labeled mouse ADM [4] were 0.74 nM and 14.3 nM, respectively.

B13: Ab2004.Am34 (Fab displayed on yeast) (Fab, V domains shown)
VH: B2 VH with Q31H
VL: B2 VL with A26S, E27Q, G30S, A51V, N53I, E55D, T56A
notes: as for B2
Take B13: the EC50 with biotin-labeled human ADM [3] came out at 1.06 nM; with biotin-labeled mouse ADM [4], 4.43 nM.

B14: chimeric antibody 2004hz00 (antibody, human IgG1, kappa)
heavy: not shown
light: DVLMTQTPFSLPVSLGDQASISCRSSQSIIDSDGNTYLEWYLQKPGQSPKLLIYKVSNRFSGVPDRFSGSGSGTDFTLRISRVEAEDLGVYYCFQGSHFPYTFAGGTKLELKRTVAAPSVFIFPPSDEQLKSGTASVVCLLNNFYPREAKVQWKVDNALQSGNSQESVTEQDSKDSTYSLSSTLTLSKADYEKHKVYACEVTHQGLSSPVTKSFNRGEC
notes: Human IgG1/kappa
For B14, in the test with biotin-labeled human ADM [5], the Kd is 0.457 nM, the Response value is 2.69, the koff was determined as 0.000201 s⁻¹ and the kon is 441000 M⁻¹ s⁻¹. In the test with biotin-labeled mouse ADM [6], this molecule returned a dissociation constant Kd of 0.454 nM, a Response value of 3.19, a koff of 0.000196 s⁻¹ and a kon of 432000 M⁻¹ s⁻¹.

B15: humanized antibody 2004hz97 (antibody, human IgG1, kappa)
heavy: not shown
light: DVVMTQSPLSLPVTLGQPASISCRSSQSIIDSDGNTYLEWYQQRPGQSPRLLIYKVSNRFSGVPDRFSGSGSGTDFTLKISRVEAEDFGVYYCFQGSHFPYTFGQGTKLEIKRTVAAPSVFIFPPSDEQLKSGTASVVCLLNNFYPREAKVQWKVDNALQSGNSQESVTEQDSKDSTYSLSSTLTLSKADYEKHKVYACEVTHQGLSSPVTKSFNRGEC
notes: Human IgG1/kappa
With B15, in the test with biotin-labeled human ADM [5], the affinity, expressed as Kd, was 0.546 nM; the Response value came to 2.39; the off-rate constant (koff) came to 0.000252 s⁻¹; the kon amounted to 461000 M⁻¹ s⁻¹. In the test with biotin-labeled mouse ADM [6], this molecule yielded a Kd of 0.489 nM, a Response value of 3, a koff of 0.000231 s⁻¹ and an on-rate constant (kon) of 472000 M⁻¹ s⁻¹.

B16: humanized antibody 2004hz99 (antibody, human IgG1, kappa)
heavy: not shown
light: B15 light with V3L, G104A
notes: Human IgG1/kappa
In the test with biotin-labeled human ADM [5], B16 showed a dissociation constant (Kd) of 0.429 nM, a Response value of 2.58, a koff of 0.000201 s⁻¹ and a kon of 468000 M⁻¹ s⁻¹. In the test with biotin-labeled mouse ADM [6], this molecule had a dissociation constant Kd of 0.418 nM, a Response value of 3.06, a koff of 0.000194 s⁻¹ and a kon of 465000 M⁻¹ s⁻¹.
